The source of these data is patent US20160185837A1, “GIP AND GLP-1 RECEPTOR DUAL-AGONISTS FOR THE TREATMENT OF DIABETES” (Medimmune Limited, priority 2013, published 2016).

Holding throughout (test): cell-based or functional assay
The target of test [1] is T1, human GIP receptor (human) (UniProt P48546).
T1 sequence (looked up): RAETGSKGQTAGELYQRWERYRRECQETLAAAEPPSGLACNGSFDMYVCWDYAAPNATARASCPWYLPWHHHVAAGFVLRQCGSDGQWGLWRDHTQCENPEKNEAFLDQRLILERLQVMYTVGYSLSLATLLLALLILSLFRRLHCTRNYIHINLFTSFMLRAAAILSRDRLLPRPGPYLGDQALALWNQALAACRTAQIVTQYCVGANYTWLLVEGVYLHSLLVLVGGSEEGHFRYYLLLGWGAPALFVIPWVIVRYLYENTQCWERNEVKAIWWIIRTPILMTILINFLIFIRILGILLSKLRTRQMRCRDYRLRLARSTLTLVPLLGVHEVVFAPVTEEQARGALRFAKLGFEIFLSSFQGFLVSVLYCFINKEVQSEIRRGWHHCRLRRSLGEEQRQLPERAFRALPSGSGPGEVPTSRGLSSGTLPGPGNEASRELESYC

The target of test [2] is human GLP-1 receptor (human) (UniProt P43220).
For test [3], the target named is human glucagon receptor (human) (UniProt P47871).
The target of test [4] is T2, mouse GIP receptor (mouse) (UniProt Q0P543).
T2 sequence (looked up): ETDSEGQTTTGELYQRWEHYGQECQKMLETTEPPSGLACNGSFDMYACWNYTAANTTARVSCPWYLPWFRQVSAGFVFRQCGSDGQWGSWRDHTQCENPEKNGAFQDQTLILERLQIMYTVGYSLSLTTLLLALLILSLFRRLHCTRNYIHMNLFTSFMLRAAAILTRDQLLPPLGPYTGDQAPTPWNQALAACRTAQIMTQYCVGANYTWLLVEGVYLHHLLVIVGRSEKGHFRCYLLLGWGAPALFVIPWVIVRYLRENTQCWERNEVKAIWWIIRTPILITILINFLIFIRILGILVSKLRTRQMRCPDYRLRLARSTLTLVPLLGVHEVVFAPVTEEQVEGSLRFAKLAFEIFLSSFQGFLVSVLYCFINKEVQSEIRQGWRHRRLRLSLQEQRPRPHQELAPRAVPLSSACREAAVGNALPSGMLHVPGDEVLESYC

Sequence of human GLP-1 receptor (human) (P43220 24-463): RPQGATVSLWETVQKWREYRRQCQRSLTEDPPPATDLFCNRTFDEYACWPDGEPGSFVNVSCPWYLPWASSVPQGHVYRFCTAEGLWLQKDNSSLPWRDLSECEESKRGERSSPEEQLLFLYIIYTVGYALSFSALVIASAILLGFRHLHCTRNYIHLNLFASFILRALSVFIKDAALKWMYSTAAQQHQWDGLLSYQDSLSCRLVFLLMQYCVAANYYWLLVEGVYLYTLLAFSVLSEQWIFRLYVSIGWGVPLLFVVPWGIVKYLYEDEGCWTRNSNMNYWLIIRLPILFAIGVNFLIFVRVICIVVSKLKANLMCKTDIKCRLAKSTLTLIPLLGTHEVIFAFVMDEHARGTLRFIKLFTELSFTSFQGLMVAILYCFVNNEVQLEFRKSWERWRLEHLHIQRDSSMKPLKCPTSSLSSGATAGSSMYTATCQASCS
Sequence of human glucagon receptor (human) (P47871 26-477): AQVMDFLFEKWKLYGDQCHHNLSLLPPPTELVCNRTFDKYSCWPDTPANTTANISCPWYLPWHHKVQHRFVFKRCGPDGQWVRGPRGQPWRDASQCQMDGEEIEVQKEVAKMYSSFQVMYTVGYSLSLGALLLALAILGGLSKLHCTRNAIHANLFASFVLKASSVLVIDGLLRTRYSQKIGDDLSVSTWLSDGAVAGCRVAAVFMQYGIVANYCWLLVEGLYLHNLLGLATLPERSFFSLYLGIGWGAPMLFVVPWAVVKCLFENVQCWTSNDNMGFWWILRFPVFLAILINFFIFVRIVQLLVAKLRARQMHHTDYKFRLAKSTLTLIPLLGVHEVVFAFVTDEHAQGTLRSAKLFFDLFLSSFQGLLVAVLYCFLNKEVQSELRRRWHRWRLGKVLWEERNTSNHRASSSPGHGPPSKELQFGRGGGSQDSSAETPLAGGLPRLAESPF

B1: IP132 (Fc fusion)
chain: HGEGTFTSDVSSYLEGQAAKEFIAWLVKGGGGGGSGGGGSGGGGSGGGGSATHTCPPCPAPEF
As for B1, the values for the cAMP EC50, Batch 2 in test [1] and in test [2] were 81 nM and 0.04 nM, respectively.

B2: IP188 (Fc fusion)
chain: YSEGTFISDYSIAMDKIHQQDFVNWLLAQKAPPGGGGGSGGGGSGGGGSGGGGSATHTCPPCPAPEF
In the case of B2, the results for the cAMP EC50, Batch 1 in test [1], in test [2] and in test [3] were 0.0038 nM, 500 nM and 350 nM, respectively.

B3: IP193 (Fc fusion)
chain: HGEGTFTSDVSSYLEGQAAKEFIAWLVKGAAAGGSGSTASSGSGSATGGGGCPPCPAPEF
As to B3, the cAMP EC50, Batch 1 in test [1] was 450 nM; in test [2], 0.064 nM; in test [3], 780 nM.

B4: IP195 (Fc fusion)
chain: HGEGTFTSDVSSYLEGQAAKEFIAWLVKGAAAGGSGSTASSGSGSATGGGGESKYGPPCPPCPAPEF
In test [2], B4 came in with a cAMP EC50, Batch 1 of 0.061 nM.

B5: IP174 (Fc fusion)
chain: HGEGTFTSDVSSYLEEEAAKEFIAWLVAGGAAAGGSGSTASSGSGSATGGGGAATHTCPPCPAPEF
For the molecule B5, the cAMP EC50 in test [1] was 460 nM; in test [2] it was 0.032 nM.

B6: IP146 (Fc fusion)
chain: HGEGTFTSDVSSYLEGQAAKEFIAWLVKGAAAGGSGSTASSGSGSATGGGGAACPPCPAPEF
For B6, the results for the cAMP EC50, Batch 1 in test [1], in test [2] and in test [3] were 83 nM, 0.049 nM and 650 nM, respectively.

B7: IP194 (Fc fusion)
chain: HGEGTFTSDVSSYLEGQAAKEFIAWLVKGAAAGGSGSTASSGSGSATGGGGPPCPPCPAPEF
In turn, B7 yielded a cAMP EC50, Batch 1 in test [2] of 0.061 nM.

B8: IP197 (Fc fusion)
chain: YSEGTFTSDVSSYMERQAIDEFIAWLLAGAAAGGSGSTASSGSGSATGGGGAATHTCPPCPAPEF
Turning to B8, the values for the cAMP EC50 in test [1] and in test [2] were 0.18 nM and 0.78 nM, respectively.

B9: IP199 (Fc fusion)
chain: HGEGTFTSDVSSYLEGQAAKEFIAWLLAGAAAGGSGSTASSGSGSATGGGGAATHTCPPCPAPEF
In test [2], B9 showed a cAMP EC50 of 0.069 nM.

B10: IP173 (Fc fusion)
chain: YSEGTFTSDVSSYLEEQAAKEFIAWLLAGAAAGGSGSTASSGSGSATGGGGAATHTCPPCPAPEF
On to B10, for which the results for the cAMP EC50 in test [1] and in test [2] were 1.2 nM and 0.23 nM, respectively.

B11: IP233 (Fc fusion)
chain: HGEGTFTSDVSSYLEEQAAKEFIAWLVKGAAAGGSGSTASSGSGSATGGGGAATHTCPPCPAPEF
Regarding B11, in test [2], the cAMP EC50, Batch 1 turned out to be 0.036 nM.

B12: IP208 (Fc fusion)
chain: YSEGTFTSDVSSYLEGQAAKEFIAWLLAGAAAGGSGSTASSGSGSATGGGGAATHTCPPCPAPEF
In the case of B12, the cAMP EC50 in test [1] is 17 nM; in test [2], 1.6 nM.

B13: IP171 (Fc fusion)
chain: YSEGTFTSDVSSYMERQAISEFIAWLLAGAAAGGSGSTASSGSGSATGGGGAATHTCPPCPAPEF
B13: the cAMP EC50 in test [1] stood at 0.39 nM; in test [2] it was 0.53 nM.

B14: IP196 (Fc fusion)
chain: HGEGTFTSDVSSYLEGQAAKEFIAWLVKGAAAGGSGSTASSGSGSATGGGGAPEF
In test [2], B14 returned a cAMP EC50, Batch 1 of 0.073 nM.

B15: IP404 (Fc fusion)
chain: YSEGTFTSLYRIHKERQAIDEFIAKLLKGGGSGGGGSGGGGSGGGGSGGGGSGGGGSGGGGSGGGGSACPPC
Take B15: the cAMP EC50 in test [2] is greater than 17.2 nM; in test [3] it was greater than 17.2 nM; in test [4], 0.05 nM.

B16: IP408 (Fc fusion)
chain: YSEGTHTSDLRILLERQAIDEFIAKLLKGGGSGGGGSGGGGSGGGGSGGGGSGGGGSGGGGSGGGGSACPPC
B16: the cAMP EC50 in test [2] is greater than 166 nM; in test [3], greater than 166 nM; in test [4] it was 0.38 nM.

B17: IP422 (Fc fusion)
chain: YSEGTHTSDLRILLERQAIDEFIAFLLKGGGSGGGGSGGGGSGGGGSGGGGSGGGGSGGGGSGGGGSACPPC
The molecule B17 displayed a cAMP EC50, hGIPr (C3) line in test [1] of 1.8 nM. Further, the cAMP EC50 in test [2] is greater than 59 nM; in test [3], greater than 59 nM; in test [4], 0.012 nM.

B18: IP407 (Fc fusion)
chain: YSEGTFTSDYSKLLEEEAIRLFIEWLLAGGGGGGSGGGGSGGGGSGGGGSATHTCPPC
For B18, the cAMP EC50 is 0.25 nM in test [2], greater than 163 nM in test [3] and 2.3 nM in test [4].

B19: IP420 (Fc fusion)
chain: YSEGTFTSDYSKLLEEEATRLFIEWLLAGGGGGGSGGGGSGGGGSGGGGSATHTCPPC
With B19, the figures for the cAMP EC50 in test [2], in test [3] and in test [4] were 0.082 nM, 21 nM and 2.6 nM, respectively.

B20: IP207 (Fc fusion)
chain: YAEGTFISDYSIAMDKIHQQDFVNWLLAQKGKKNDWKHNITQAAAGGSGSTASSGSGSATGGGGAATHTCPPCPAPELL
On to B20, for which the figures for the cAMP EC50 in test [1], in test [2] and in test [3] were 0.0078 nM, 4100 nM and 900 nM, respectively. The molecule further gave a cAMP EC50, Batch 1 in test [1] of 0.0085 nM.

B21: IP231 (Fc fusion)
chain: HGEGTFTSDVSSYLEEQAAKEFIAWLVKGGGGGGSGGGGSGGGGSGGGGSATHTCPPC
In the case of B21, the cAMP EC50, Batch 1 in test [2] is 0.067 nM.

B22: IP187 (Fc fusion)
chain: HGEGTFTSDVSSYLEGQAAKEFIAWLVKGAPPGGGGGSGGGGSGGGGSGGGGSATHTCPPCPAPEF
Consider B22, for which the cAMP EC50, Batch 1 in test [1] came to 540 nM; in test [2] it was 0.037 nM.

B23: IP224 (Fc fusion)
chain: YSEGTFTSDVSSYMERQAIDEFIAWLLGGGAAAGGSGSTASSGSGSATGGGGAATHTCPPCPAPEF
Regarding B23, the values for the cAMP EC50 in test [1] and in test [2] were 0.35 nM and 0.57 nM, respectively.

B24: IP150 (Fc fusion)
chain: YSEGTFTSDVSSYLEGQAAKEFIAWLVAGGAPPGGSGSTASSGSGSATGGGGAATHTCPPCPAPEF
For the molecule B24, the cAMP EC50 amounted to 16 nM in test [1] and 0.033 nM in test [2].

B25: IP203 (Fc fusion)
chain: HGEGTFTSDVSSYLEGQAAKEFIAWLVKGGAAAGGSGSTASSGSGSATGGGGAATHTCPPCPAPEF
With B25, the cAMP EC50, Batch 1 in test [1] is 110 nM; in test [2], 0.042 nM; in test [3], greater than 650 nM.

B26: IP176 (Fc fusion)
chain: YSEGTFTSDVSSYMERQAISEFIAWLLKGPAAAGGSGSTASSGSGSATGGGGAATHTCPPCPAPEF
For the molecule B26, the cAMP EC50 in test [1] stood at 0.42 nM; in test [2], 0.6 nM.

B27: IP191 (Fc fusion)
chain: HGEGTFTSDVSSYLEGQAAKEFIAWLVKGAAAGGSGSTASSGSGSATGGGGAATYTCPPCPAPEF
On to B27, for which the cAMP EC50, Batch 1 in test [2] was 0.057 nM.

B28: IP192 (Fc fusion)
chain: HGEGTFTSDVSSYLEGQAAKEFIAWLVKGAAAGGSGSTASSGSGSATGGGGAATSTCPPCPAPEF
In turn, B28 came in with a cAMP EC50, Batch 1 in test [2] of 0.043 nM.

B29: IP238 (Fc fusion)
chain: HGEGTFTSDVSSYLEGQAAKEFIAWLVKGGGGGGSGGGGSGGGGSAESKYGPPCPPC
Turning to B29, the figures for the cAMP EC50, Batch 1 in test [1] and in test [2] were 310 nM and 0.058 nM, respectively.

B30: IP204 (Fc fusion)
chain: HGEGTFISDYSIAMDKIHQQDFVNWLLAQKAAAGGSGSTASSGSGSATGGGGAATHTCPPCPAPEF
For the molecule B30, the cAMP EC50 in test [1] was found to be 0.12 nM; in test [2] it was 850 nM.
As to GGGGGSGGGGSGGGGSGGGGSATHTCPPC (Fc fusion, not shown: a dimerising Fc or GST) [IP288], the cAMP EC50 in test [1] stood at 2300 nM.
